# Measured values: the DeepSol protein solubility set
# Test: soluble on expression in E. coli; label from the status in PepcDB or PDB records
row,Sequence,soluble on expression in E. coli
1,MSLASAIRICTKFSRLSLNSRSTSKSLIHCMSNVTADVPPVSETKSKFLKAYKRPIPSIYNTVLQELIVQQHLMRYKKTYRYDPVFALGFVTVYDQLMEGYPSDQDRDAIFKAYIEALNEDPKQYRIDAQKMEEWARSQTSASLVDFSSKEGDIEAVLKDIAGRAGSKEGFSYSRFFAVGLFRLLELASATDPTVLDKLCASLNINKKSVDRDLDVYRNLLSKLVQANELLKEYVEREKKKQEERAQSQKANETISKCLGDTLYNPSFLVERKSEGHHHHHH,soluble
2,MSLASLPGGASTLQETYQDWTVSCQSQKDTTACVMRQEQSSAQTGQRVLTAELRNVAGGKVDGVLLMPFGLDLAKGASLKIDDTAGPNLTFSTCLPQGCLAPVSFDAKQVAALKSGTNINVTTTALSPSQPVAFKISLKGFGAALDRIQALTKEGHHHHHH,soluble
3,MSLATIYDVSVLAGVSLATVSRVMNKNTNVSEKTKKKVQDAMDQLGYRPSSIAQSLASNRSNSIGVLVSQLDGPFYGPMMTEIETALRDANKHVIIAAGHSNETQEKEAVEFLLDRGCDALILDVEALSDEYIINLCQQSTPIVLINRFISEIEERCIYLNNALGGYLATKHVLSQGHTQLAYIAGPQFKSDARERLEGHKQALAEFEVTFDETLFFEGNFREPSGVSAMEYLLKQDKQFTCVISANDQMASGAIAVSLERDISVPKQLSFIGYDNSPFPKYISPKLSTVSNPIQEMGKMAALWVLKNVYNKPDLSIVNTFTPQLILRDSVKEGHHHHHH,soluble
4,MSLAVDTSGEFMRHLYIEEGRTVCASATSRNRRPTSESPHSDDVVVVEGMLRGRPETRVHAMFDGFQGRHSAMWLAQNVMNYLNDLRDVNEEEITRQFERMDGDLRAANLPGGSSALIIFVRYEKKPTEARVVGRQIVPEGAKEFTSVAEALGGPLMPVVAMNFRRDPRAAKGIYTIHVASLGNSRCVLKSGRTAIHLSTPHTASSHKERHRVQAAGGVFTTVNGELLLGGVVPMTRAFGSFDFKKGGQGKLQQDLVSAVPDVTTFFAYPGDDIVAGTAGAFAHFRSHAAIAAAIALYPVSPETVLDAAKAMVVNAKRRKVTKNISTFVRHLPESRTRSQKMLEGTSGENGEEDFSIDRTNELTQALQAGFFSFLLYYEGHHHHHH,soluble
5,MSLDCKIDIIPRVLHFKQPAGTSRGTYTTRKVWYLHFTAPEFPNWVGIGECAPLPNLSCDDLPDYEEVLAKICRQVENQGGKLDMEALCKYPSILFGLETAIRHFFEGSWALWDTPFSRGEAGIPINGLIWMGDFNRMLAQIEKKMEAGFRCIKLKIGAINFEEELALLQHIRSHYSSKEIELRVDANGAFSPTDAMEKLKRLSELDLHSIEQPIRAGQWEEMARLTSESPLPIALDEELIGYNTWEEKQRLLSAIRPQYIIIKPSLHGGLAGGEEWIAEAEKLNIGWWITSALESNIGLNAIAQWCATFQNPLPQGLGTGLLFTDNVEMPLEIRKDCLWFCKEGHHHHHH,soluble
6,MSLDDKATKPHDRLAQALAEDMAAVNALIRERMSSEHAPRIPEVTAHLIEAGGKRLRPMLTLAAARLVGYGGPFHVHLAATVEFIHTATLLHDDVVDESRQRRGRPTANLLWDNKSSVLVGDYLFARSFQLMTDTGNMRVMEILANASAVIAEGEVLQLTAAQNLATTEDIYLRVIRGKTAALFSAATEVGGIIGGAPEDQVQALFDYGDALGIAFQIVDDLLDYGGKSAEIGKNTGDDFRERKLTMPVIKAVALADEAERAFWKRVIEKGDQQDGDLEHAMALMTKHGTLEATRLAAIGWTDTARKALAKLPDHPLRQMLDDLADYVVERVREGHHHHHH,soluble
7,MSLDFAARQAAFADALLHPDRPVPDGVINARGEPDAARFAVYRNNVFVGLTKALAQRFPVTERLVGSEFFAAMARAYVQDHKPASPLIMEYGDDFPDFVAAFEPAGTLVYLPDVARLEAAWTEAYHAADSAPLDLAAFGAVAPEMLSDLRLLPHPSARLILSNFPVGSIWSAHQEAVVSPVSDWGGQAVLVVRPEMSVNVHVLPPRDAVFAAALFNAATLGEAAEAAFAAAPEFDFGTALVGLAGIGAFRAFQQYKGNEGHHHHHH,not soluble
8,MSLDFRSADFLRTHISDTMAFYHPRCIDSAGGFFHYFRDDGSIYNATHRHLVSSTRFVFNYAMAYLQFGTAEYLDAVHHGLSYVRDVHRNPATGGYAWTLCDDRVEDDTNHCYGLAFVMLAYSCGLKVGIKQAREWMDETWCLLERHFWDAEYGLYKDEADAQWNFTRYRGQNANMHMCEAMLAAYEASGEQRYLERALVLADRITRRQAAKADGLVWEHYDMRWEVDWDYNRDNPKHLFRPWGFQPGHQTEWAKLLLILDRYIEVEWLVPVARSLFDVAVARSWDAVRGGLCYGFAPDGTICDDDKYFWVQAESLAAAALLATRSGDERYWQWYDRLWAYAWQHMVDHRYGAWYRLLDGDNRKYNDEKSPAGKTDYHTMGACHEVLNVVWTKSEGHHHHHH,soluble
9,MSLDGGTLGATNRFLTRDGSPWIPIAGEMHYSRIAAERWDTELAKMAAAGIDVVSTYVFWNHHEEREGEWDFSGNRNVRRFVELCARHGLHVIVRLGPFCHGEVRNGGLPDWLYGKSYEVRSLDAGFLDAVRGLYAHIAQQLRGLYFKDGGPIIAAQVDNEYMASSAPWEMTTGISREWVPSGHDGAGYLERLRDIAIEEGIDPPMFTCTGWQSPVPDDMLPLWGGYAYRPWLFYDGVGAEGMTEHPATDEYRYRRLHGSSTSDGFDPPYDPDSRPYACCEMGGGMFNSYDYRFVLPKRSVDAMANIKLGSGCDFLGYYMFHGGTNPKGAAGFLNEGQTPKRSYDFQAPLGKFGQVRESYRRLRTLHEFVKAFGPELAGMPVSLQDGQDRIDPSDSETLRYAVRSDGERGFVSIDNFQDHARVPSRHGEQIDVTTGTGERIRFTGIGLAEGENCILPFNMDLDGVRLVRANLQPVTVLRVPGRPFRTFVFLKPDGMDELTFHFEGDIQDVTVGKADFERFMVRDAAEIVCVTRALAGRMTVLDGGLAFVDDDNALLYEDGDGWTLESPRAENGIAAYPEGLLGSPRPVEPVSVYARMRRLHADRYEIALPAGMGRLFRDQRQVADVMLNIAYQGDIGWLFCGDVLIADNFCNGETWQVGLRDYADAIDAAGGKLTLVVTPLRRGVRVKVTSSMAARLEQSDACVADVTDVYATPVYHMPVGEGHHHHHH,not soluble
10,MSLDHTYVFAVGGLDEVGKNSYAIEHNEETIMVDYGIKFASSDLLGINGIVANTSYFVENNRPIDALLLTHGHEDHIGGIPYLLQTTEVKKIYAPLLATELIKRRLSEFRDIKYNPEIIPFGDDSKVSTKYFEVDFFRVCHSIPDSFGMCIKTPNGRIVSAGDYRYDFGKDTDDTNIHKLVEMSNRGIDIFLSESTNSDQPGFSPSEDNIINNIETLIKNSKGRVFVATFASNLGRIEKIIERAIKSGRRVCIMGRSMEANIKTSKKLGYLKISESDFLTTKELNECKDREILVVLTGSQGEEMAALNQMALGKHPRLSLKPSDSIIMSSNPIPGNFKSVELLINRLYKQGVNMYTNSPNFRIHSSGHATIQELQMMFKILKPKYLIPIHGESKMLSAMKRNANSIGINPENVFVLTNGLKVELKDHNLKLTNQRIDACPIYIDKKVASKSTTDLINKRKLLSEEGIFNIIVLIDHKNKKVVKNPMLSTRGCFYAKDSSSLITKISFSVKDEIESLLNKEAEASKEKIKQAVANVVKFYVWKNKKKNPIVTTTVFDIEGHHHHHH,not soluble
11,MSLDKKAVFADVAEKDASFINENYYISPSLDTLSSYSLLQLRKVPHLVVGHKSYGKIEFLEPVDLAGIPLTSLGGVIITFEPKTCIIYANLPNRPKRGEGINVRARITCFNCYPVDKSTRKPIKDPNHQLVKRHIERLKKNPNSKFESYDADSGTYVFIVNHAAEQTEGHHHHHH,soluble
12,MSLDKLLERFLNYVSLDTQSKAGVRQVPSTEGQWKLLHLLKEQLEEMGLINVTLSEKGTLMATLPANVPGDIPAIGFISHVDTSPDCSGKNVNPQIVENYRGGDIALGIGDEVLSPVMFPVLHQLLGQTLITTDGKTLLGADDKAGIAEIMTALAVLQQKKIPHGDIRVAFTPDEEVGKGAKHFDVDAFDARWAYTVDGGGVGELEFENFNAASVNIKIVGNNVHPGTAKGVMVNALSLAARIHAEVPADESPEMTEGYEGFYHLASMKGTVERADMHYIIRDFDRKQFEARKRKMMEIAKKVGKGLHPDCYIELVIEDSYYNMREKVVEHPHILDIAQQAMRDCDIEPELKPIRGGTDGAQLSFMGLPCPNLFTGGYNYHGKHEFVTLEGMEKAVQVIVRIAELTAQRKEGGSHHHHHH,soluble
13,MSLDKLNAISIFCKVIETQSFTLAAKQQNISVAMASKLVSQLEEHLKTRLLQRTTRKIMPTEAGMMYYQRCQGILLDLDEADSSITQLTSSLQGNLLISVPRDFGLLFIAPNLPTFMAKHPHLHIEVEFNDKKIDLLSEGYDLALRIGYMEDSSLVSRKIGTTTVHFAASPNYLETNGIPQTPDDLEHHNGLLYKNAMNQVNWVGSRINQTQRFKIQSKVVSNSGFALLNMAKAGLGIANLPKFILGRAFEKGELIEILPEYKQQKLEIHVVYPNRRHLPIKVTGISLNFEGHHHHHH,not soluble
14,MSLDLKFTDFLDPRVKSSLGEEEIVFPPYDANQLRDILQHRSDVAFKADALSDDVLPLCAAFAAQEHGDARRALDLLRTAGELAERDQAENVTEDHVRRAQDKIELDRVVEVVRTLPTQSKLVLYAILLLEDNGVHNVNTGEVYNIYKTLCDELDADVEGHHHHHH,soluble
15,MSLDLKQVLRATMVKGVLQRGTIALGNDPGVLRIYTRAACPGTLAKNYLGEWCFASKVAEEASPRVHVVGDIHGNIEALFKVLIRTKLFILDEPMSNESYEGYEDPEEPFSVKGWGVHPRYAVEGTQKYIVKDYDHIYLFLGDYVDRGSFSIECLVVLLGLKILFPNAVYLLRGNHETRACLQRGQLFQELIHKYEYVEASKITDRLLRLFDALPTCALINDYVFAVHAGIYSKNASLADIEKYCTKRAPCSKFHTKAPYFDPLHNMLWADFVEDQPAIDLSQDNRRRNTGIVFYPSTVKEFLKNEGLGLFIRGHQSTPFGVSISQTGKLVTVSINSDSTPTWLGAVLTLVHPADADASESISPVNLASEGHHHHHH,not soluble
16,MSLDMKEWEIFYNKIMEDFGFDKDKDVESAVILNNILENANTIPVDKLKDIIEGREVFIFGAGPSIKKHINILKELREINYKNPIIVADGACKAFLEENIIPDIIVSDLDGDLEALFECNRKGSIIVVHAHGDNIEKIKKYVPKLKNVVGSCQIPNYKELNLRNVINFGGFTDGDRCCFLAYHFKAKKLILGGMDFGIYITKYSRPNIKEDIAIGDEIKIKKLEYAKTLINYLKDKIEIEFLKEGHHHHHH,soluble
17,MSLDPEDVYDGGYGSKHSPVQLRIGNGGAGQSGLVKELADAFIKSKVDSGSAPFKVAWYKSDTTVTINYLKDGIVDVGITYSPVAERISIKHGISESPSYYAFRDHFMLIGPPSNPAKLSGDSDIADMFSKMHDAAEAGNTKPPVRFLSRYDKSATNIKEAELWLSIGQVPWATAYSTWYHQYITFPIQALTAAILLREYTITDYGTYLSIPRGLRDQMVIYKKGTNDADDPLLNPAHLLVGARAKNAEMAKEFAKWLVSKEGGQKVIEGFKKDGQQLYSPAPYRHEGHHHHHH,soluble
